The chains are these.
B1: CD97 EGF_(1,2,5) fragment, WT, without His-tag (SPR construct with TEV site) [human] / CD55 SCR1–4 domains (35–285), His-tagged [human] (parent)
chain 1: QDSRGCARWCPQNSSCVNATACRCNPGFSSFSEIITTPTETCDDINECATPSKVSCGKFSDCWNTEGSYDCVCSPGYEPVSGAKTFKNESENTCQDVDECSSGQHQCDSSTVCFNTVGSYSCRCRPGWKPRHGIPNNQKDTVCED
chain 2: DCGLPPDVPNAQPALEGRTSFPEDTVITYKCEESFVKIPGEKDSVICLKGSQWSDIEEFCNRSCEVPTRLNSASLKQPYITQNYFPVGTVVEYECRPGYRREPSLSPKLTCLQNLKWSTAVEFCKKKSCPNPGEIRNGQIDVPGGILFGATISFSCNTGYKLFGSTSSFCLISGSSVQWSDPLPECREIYCPAPPQIDNGIIQGERDHYGYRQSVTYACNKGFTMIGEHSIYCTVNNDEGEWSGPPPECRG

In the first experiment the parent is B1. Put plainly: SPR. As to conditions: with CD55 SCR1–4 domains (35–285), His-tagged CD55 immobilized on NTA chip, CD97(D81A) titrated at 0.2, 0.5, 1, 2, 5, 10, 20 µM.
Regarding chain 1 QDSRGCARWCPQNSSCVNATACRCNPGFSSFSEIITTPTETCDDINECATPSKVSCGKFSACWNTEGSYDCVCSPGYEPVSGAKTFKNESENTCQDVDECSSGQHQCDSSTVCFNTVGSYSCRCRPGWKPRHGIPNNQKDTVCED [chain 1 D61A], the koff – broadly, the rate constant with which the complex falls apart – was 1.22 10^-3 s-1.

The experiment is the same for the next values; noted with them: with CD55 SCR1–4 domains (35–285), His-tagged CD55 immobilized on NTA chip, CD97(D81A) titrated at 0.2, 0.5, 1, 2, 5, 10, 20 µM, parent: 546.
As to chain 1 QDSRGCARWCPQNSSCVNATACRCNPGFSSFSEIITTPTETCDDINECATPSKVSCGKFSACWNTEGSYDCVCSPGYEPVSGAKTFKNESENTCQDVDECSSGQHQCDSSTVCFNTVGSYSCRCRPGWKPRHGIPNNQKDTVCED [chain 1 D61A], the on-rate (kon) (usually the rate constant with which the complex forms) worked out at 20.2 M⁻¹ s⁻¹.

The experiment is the same for the next values; noted with them: with CD55 SCR1–4 domains (35–285), His-tagged CD55 immobilized on NTA chip, CD97(V137A) titrated at 0.2, 0.5, 1, 2, 5, 10, 20 µM.
In the case of chain 1 QDSRGCARWCPQNSSCVNATACRCNPGFSSFSEIITTPTETCDDINECATPSKVSCGKFSDCWNTEGSYDCVCSPGYEPVSGAKTFKNESENTCQDVDECSSGQHQCDSSTVCFNTAGSYSCRCRPGWKPRHGIPNNQKDTVCED [chain 1 V117A], the koff was 1.63 10^-3 s-1.

The experiment is the same for the next values; noted with them: with CD55 SCR1–4 domains (35–285), His-tagged CD55 immobilized on NTA chip, CD97(V137A) titrated at 0.2, 0.5, 1, 2, 5, 10, 20 µM, parent: 546.
As for chain 1 QDSRGCARWCPQNSSCVNATACRCNPGFSSFSEIITTPTETCDDINECATPSKVSCGKFSDCWNTEGSYDCVCSPGYEPVSGAKTFKNESENTCQDVDECSSGQHQCDSSTVCFNTAGSYSCRCRPGWKPRHGIPNNQKDTVCED [chain 1 V117A], the kon was 64 M⁻¹ s⁻¹.

Still in this experiment, the particulars now being: with CD55 SCR1–4 domains (35–285), His-tagged CD55 immobilized on NTA chip, CD97(D63L) titrated at 0.2, 0.5, 1, 5, 10, 20 µM.
As to chain 1 QDSRGCARWCPQNSSCVNATACRCNPGFSSFSEIITTPTETCLDINECATPSKVSCGKFSDCWNTEGSYDCVCSPGYEPVSGAKTFKNESENTCQDVDECSSGQHQCDSSTVCFNTVGSYSCRCRPGWKPRHGIPNNQKDTVCED [chain 1 D43L], the koff was 0.968 10^-3 s-1.

The same experiment, now with this note: with CD55 SCR1–4 domains (35–285), His-tagged CD55 immobilized on NTA chip, CD97(D63L) titrated at 0.2, 0.5, 1, 5, 10, 20 µM, parent: 546.
On to chain 1 QDSRGCARWCPQNSSCVNATACRCNPGFSSFSEIITTPTETCLDINECATPSKVSCGKFSDCWNTEGSYDCVCSPGYEPVSGAKTFKNESENTCQDVDECSSGQHQCDSSTVCFNTVGSYSCRCRPGWKPRHGIPNNQKDTVCED [chain 1 D43L], for which the kon came to 11.2 M⁻¹ s⁻¹.

Staying with this experiment, now noted: with CD55 SCR1–4 domains (35–285), His-tagged CD55 immobilized on NTA chip, CD97(E86A) titrated at 0.2, 0.5, 1, 2, 5, 10, 20, 30 µM.
Turning to chain 1 QDSRGCARWCPQNSSCVNATACRCNPGFSSFSEIITTPTETCDDINECATPSKVSCGKFSDCWNTAGSYDCVCSPGYEPVSGAKTFKNESENTCQDVDECSSGQHQCDSSTVCFNTVGSYSCRCRPGWKPRHGIPNNQKDTVCED [chain 1 E66A], the koff was 1.41 10^-3 s-1.

Still in this experiment, the particulars now being: with CD55 SCR1–4 domains (35–285), His-tagged CD55 immobilized on NTA chip, CD97(E86A) titrated at 0.2, 0.5, 1, 2, 5, 10, 20, 30 µM, parent: 546.
Consider chain 1 QDSRGCARWCPQNSSCVNATACRCNPGFSSFSEIITTPTETCDDINECATPSKVSCGKFSDCWNTAGSYDCVCSPGYEPVSGAKTFKNESENTCQDVDECSSGQHQCDSSTVCFNTVGSYSCRCRPGWKPRHGIPNNQKDTVCED [chain 1 E66A], for which the kon was found to be 80.1 M⁻¹ s⁻¹.

(Values after PMC8191316, “Structural basis for CD97 recognition of the decay-accelerating factor CD55 suggests mechanosensitive activation of adhesion GPCRs” (The Journal of Biological Chemistry, 2021).)
